Source: paper PMC12090761

Legend:
[1] = molecular target: HIV-1 Gag (Pr55), immature Gag lattice of NL4-3 VLPs (HIV-1 (NL4-3)); details: scale: mol HA-Halo-gt-EnvCT/mol NL4-3
[2] = molecular target: HIV-1 Gag (Pr55), immature Gag lattice of NL4-3 VLPs (HIV-1 (NL4-3))
[3] = molecular target: HIV-1 Gag (Pr55), immature Gag lattice of NL4-3 VLPs (HIV-1 (NL4-3)); assay: co-sedimentation; immature VLPs from HEK293T stripped of membrane with 0.05% NP-40 (Env trimers) or 0.075% NP-40 (mCD4 chimeras) or PBS, 15 minutes at 25°C, sedimented through 20% sucrose at 60,000 x g, 4°C, 1 hour; pellets blotted for gp41, CD4 and Pr55
[4] = molecular target: HIV-1 Gag (Pr55), immature Gag lattice of NL4-3 VLPs (HIV-1 (NL4-3)); remark: listed apart in the source

HA-Halo-gt-EnvCT (712YA) chimera
restriction of the incorporation of Env-712YA trimers into VLPs (gp41/Pr55 by western blot; HEK293T co-transfected with chimera and NL4-3 pol(-) Env-712YA plasmids at 0 to 1.375 mol/mol) [1]: 0.3
double exponential loss curve of the competitive inhibition of 712YA Env incorporation into VLPs; half-maximal inhibition [2]: 0.6 gp41/Pr55

HIV-1 WT Env (NL4-3), gp120/gp41 trimer (complex)
percent co-sedimenting with Gag after detergent [3]: 10%

monomeric CD4-EnvCT 712YA chimera (from UniProt P01730 26-420)
incorporation into VLPs released from transduced A2.01 T cells (western blot), mCD4-EnvCT relative to mCD4-ΔCT [4]: 16.7 fold
